Assay results published in publication PMC8028046 (Biochemistry, 2021).

Molecular target: the molecule itself
Assay: SEC; elution profiles of proSP-C BRICHOS WT and T187R

B1: proSP-C BRICHOS WT (domain or fragment, human, UniProt P11686 59-197, looked up)
chain: HMSQKHTEMVLEMSIGAPEAQQRLALSEHLVTTATFSIGSTGLVVYDYQQLLIAYKPAPGTCCYIMKIAPESIPSLEALTRKVHNFQMECSLQAKPAVPTSKLGQAEGRDAGSAPSGGDPAFLGMAVSTLCGEVPLYYI
notes: human proSP-C (surfactant protein C precursor), BRICHOS domain, residues 59-197 of UniProt P11686; Mainly trimeric; The mutant's mass of 18328 Da is larger than residues 59-197 alone would give, so the construct probably carries extra residues (surmise); also called proSP-C BRICHOS domain; WT proSP-C BRICHOS domain
binding result: binds
